Reference: US20230374153A1 (PARADIGM IMMUNOTERAPEUTICS, published 2023)
Read-outs that look alike come from different tables or passages of the source.

B1: ACE2 LVE IgG Fc STR chimeric antibody (LiVE) (Fc fusion)
chain: QSTIEEQAKLFLDKFNVEAEDLFYQSSLASWNYNTNITEENVQNMNNAGDKWSAFLKEQSTLAQMYPLQEIQELTVKLQLQALQQNGSSVLSEDKSKRLNTILNTMSTIYSTGKVCNPDNPQECLLLEPGLNEIMANSLDYNERLWAWESWRSEVGKQLRPLYEEYVVLKNEMARANHYEDYGDYWRGDYEVNGVDGYDYSRGQLIEDVEHTFEEIKPLYEHLHAYVRAKLMNAYPSYISPIGCLPAHLLGDMWGRFWTNLYSLTVPFGQKPNIDVTDAMVDQAWDAQRIFKEAEKFFVSVGLPNMTQGFWENSMLTDPGNVQKAVCHPTAWDLGKGDFRILMCTKVTMDDFLTAHHEMGHIQYDMAYAAQPFLLRNGANEGFHEAVGEIMSLSAATPKHLKSIGLLSPDFQEDNETEINFLLKQALTIVGTLPFTYMLEKWRWMVFKGEIPKDQWMKKWWEMKREIVGVVEPVPHDETYCDPASLFHVSNDYSFIRYYTRTLYQFQFQEALCQAAKHEGPLHKCDISNSTEAGQKLFNMLRLGKSEPWTLALENVVGAKNMNVRPLLNYFEPLFTWLKDQNKNSFVGWSTDWSPYADQSIKVRISLKSALGDKAYEWNDNEMYLFRSSVAYAMRQYFLKVKNQMILFGEEDVRVANLKPRISFNFFVTAPKNVSDIIPRTEVEKAIRMSRSRINDAFRLNDNSLEFLGIQPTLGPPNQPPVSGGGGSGGGGSDKTHTCPPCPAPESTRGPSVFLFPPKPKDTLMISRTPEVTCVVVDVSHEDPEVKFNWYVDGVEVHNAKTKPREEQYNSTYRVVSVLTVLHQDWLNGKEYKCKVSNKALPAPIEKTISKAKGQPREPQVYTLPPSRDELTKNQVSLTCLVKGFYPSDIAVEWESNGQPENNYKTTPPVLDSDGSFFLYSKLTVDKSRWQQGNVFSCSVMHEALHNHYTQKSLSLSPGK
B2: ACE2 LVE IgG Fc STR YTE chimeric antibody (LiVE Longer) (Fc fusion)
chain: QSTIEEQAKLFLDKFNVEAEDLFYQSSLASWNYNTNITEENVQNMNNAGDKWSAFLKEQSTLAQMYPLQEIQELTVKLQLQALQQNGSSVLSEDKSKRLNTILNTMSTIYSTGKVCNPDNPQECLLLEPGLNEIMANSLDYNERLWAWESWRSEVGKQLRPLYEEYVVLKNEMARANHYEDYGDYWRGDYEVNGVDGYDYSRGQLIEDVEHTFEEIKPLYEHLHAYVRAKLMNAYPSYISPIGCLPAHLLGDMWGRFWTNLYSLTVPFGQKPNIDVTDAMVDQAWDAQRIFKEAEKFFVSVGLPNMTQGFWENSMLTDPGNVQKAVCHPTAWDLGKGDFRILMCTKVTMDDFLTAHHEMGHIQYDMAYAAQPFLLRNGANEGFHEAVGEIMSLSAATPKHLKSIGLLSPDFQEDNETEINFLLKQALTIVGTLPFTYMLEKWRWMVFKGEIPKDQWMKKWWEMKREIVGVVEPVPHDETYCDPASLFHVSNDYSFIRYYTRTLYQFQFQEALCQAAKHEGPLHKCDISNSTEAGQKLFNMLRLGKSEPWTLALENVVGAKNMNVRPLLNYFEPLFTWLKDQNKNSFVGWSTDWSPYADQSIKVRISLKSALGDKAYEWNDNEMYLFRSSVAYAMRQYFLKVKNQMILFGEEDVRVANLKPRISFNFFVTAPKNVSDIIPRTEVEKAIRMSRSRINDAFRLNDNSLEFLGIQPTLGPPNQPPVSGGGGSGGGGSDKTHTCPPCPAPESTRGPSVFLFPPKPKDTLYITREPEVTCVVVDVSHEDPEVKFNWYVDGVEVHNAKTKPREEQYNSTYRVVSVLTVLHQDWLNGKEYKCKVSNKALPAPIEKTISKAKGQPREPQVYTLPPSRDELTKNQVSLTCLVKGFYPSDIAVEWESNGQPENNYKTTPPVLDSDGSFFLYSKLTVDKSRWQQGNVFSCSVMHEALHNHYTQKSLSLSPGK

Tests used:
[1] = molecular target: T1, SARS-CoV-2 (COVID-19) S protein RBD, His Tag B.1.1.529/Omicron (ACRO Biosystems Cat. No. SPD-052H3) (SARS-CoV-2, UniProt P0DTC2 319-537); assay: SPR (Biacore T200, ACRO Biosystems), 1:1 model
T1 construct: domain: RBD; also called Omicron RBD only; Omicron variant RBD

[2] = molecular target: T2, SARS-CoV-2 Delta variant B.1.617.2, RBD only (SARS-CoV-2, UniProt P0DTC2 319-537); assay: SPR (Biacore T200, ACRO Biosystems), 1:1 model
T2 construct: domain: RBD; also called RBD of the Delta B.1.617.2 variant

[3] = molecular target: T3, SARS-CoV-2 Spike Trimer, His Tag B.1.1.529/Omicron (ACRO Biosystems Cat. No. SPN-052Hz) (SARS-CoV-2, UniProt P0DTC2 16-1213); assay: SPR (Biacore T200, ACRO Biosystems), 1:1 model
T3 construct: also called Omicron BA.1 spike protein trimer

[4] = molecular target: SARS-CoV-2 Omicron BA.5 (live virus; spike protein) (SARS-CoV-2, UniProt P0DTC2 14-1273); assay: cell-based or functional assay
[5] = molecular target: T3, SARS-CoV-2 Spike Trimer, His Tag …
[6] = molecular target: T3, SARS-CoV-2 Spike Trimer, His Tag …; remark: listed apart in the source
[7] = molecular target: SARS-CoV-2 Omicron BA.5 spike protein trimer (SARS-CoV-2, UniProt P0DTC2 16-1213); assay: SPR (Biacore T200, ACRO Biosystems), 1:1 model
[8] = molecular target: T4, SARS-CoV-2 Omicron BA.2.75 spike protein trimer (SARS-CoV-2, UniProt P0DTC2 16-1213); assay: SPR (Biacore T200, ACRO Biosystems), 1:1 model
T4 construct: also called Omicron subvariant BA2.75 spike trimer

[9] = molecular target: SARS-CoV-2 Omicron BQ.1.1 spike protein trimer (SARS-CoV-2, UniProt P0DTC2 16-1213); assay: SPR (Biacore 8K, ACRO Biosystems), 1:1 model
[10] = molecular target: SARS-CoV-2 Omicron XBB.1 spike protein trimer (SARS-CoV-2, UniProt P0DTC2 16-1213); assay: SPR (Biacore 8K, ACRO Biosystems), 1:1 model
[11] = molecular target: SARS-CoV-2 Omicron BA4.6 spike protein trimer (SARS-CoV-2, UniProt P0DTC2 16-1213); assay: SPR (Biacore 8K, ACRO Biosystems), 1:1 model
[12] = molecular target: T3, SARS-CoV-2 Spike Trimer, His Tag …; remark: listed apart in the source

Row | Binder | Kd [1] | Kd [2] | Kd [3] | IC50 of inhibition of viral replication (human airway organoids) [4] | Kd [5] | Kd [6] | koff [6] | kon [6] | Kd [7] | Kd [8] | Kd [9] | Kd [10] | Kd [11] | koff [12] | kon [12]
1 | B1 | 308 pM | 554 pM | 144 pM | 0.0299 µg/mL | 114 pM | 144 pM | 0.000153 s⁻¹ | 1.06e+06 M⁻¹ s⁻¹ |  |  |  |  |  |  | 
2 | B2 | 402 pM |  | 73 pM | 0.0269 µg/mL | 73.4 pM |  |  |  | 5.43 pM | 0.133 pM | 1.81 pM | 215 pM | 845 pM | 0.000117 s⁻¹ | 1.59e+06 M⁻¹ s⁻¹
